Residue numbers refer to the chain shown, from its start.
T1: GST fusion protein of VPAC1 extracellular loop 2 (human)
T1 construct: also called isolated extracellular loop 2 of the VPAC1 receptor; not shown: GST (glutathione-S-transferase) fusion partner
T1 chain: IHFEDYGCWDTINSSLWW

T2: GST-fused VPAC1 variant 4-2 (amino acids 231-457 of SEQ ID NO:15) (human, UniProt P32241 231-457)
T2 construct: not shown: By analogy w [CUT]
T2 sequence: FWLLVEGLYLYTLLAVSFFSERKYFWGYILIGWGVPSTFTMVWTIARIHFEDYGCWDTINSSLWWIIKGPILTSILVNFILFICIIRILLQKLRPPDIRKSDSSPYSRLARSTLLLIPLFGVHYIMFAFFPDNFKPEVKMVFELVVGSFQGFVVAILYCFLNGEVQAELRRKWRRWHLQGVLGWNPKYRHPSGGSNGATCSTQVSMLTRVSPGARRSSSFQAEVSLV

T3: GST-fused VPAC1 variant 3-2 (amino acids 123-457 of SEQ ID NO:15) (human, UniProt P32241 123-457)
T3 construct: not shown: By analogy w [CUT]
T3 sequence: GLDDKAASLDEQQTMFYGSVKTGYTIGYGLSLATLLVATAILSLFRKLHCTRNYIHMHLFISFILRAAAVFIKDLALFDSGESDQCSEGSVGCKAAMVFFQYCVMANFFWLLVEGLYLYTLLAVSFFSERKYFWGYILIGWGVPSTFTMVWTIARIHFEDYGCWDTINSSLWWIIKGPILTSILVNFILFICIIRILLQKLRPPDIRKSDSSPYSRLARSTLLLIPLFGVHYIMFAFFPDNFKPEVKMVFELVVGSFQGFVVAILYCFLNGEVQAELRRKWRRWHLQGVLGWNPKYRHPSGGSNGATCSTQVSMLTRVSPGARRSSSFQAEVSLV

T4: murine VPAC1 receptor on mouse bone marrow-derived CD41/61+ megakaryocytes (mouse, UniProt P97751 31-459)
T4 construct: whole, on cells; Endogenous receptor; It was detected by immunoblot of megakaryocytes and targeted on living megakaryocytes in the cAMP assay; also called VPAC1 receptor on the murine megakaryocytes
T4 sequence (looked up): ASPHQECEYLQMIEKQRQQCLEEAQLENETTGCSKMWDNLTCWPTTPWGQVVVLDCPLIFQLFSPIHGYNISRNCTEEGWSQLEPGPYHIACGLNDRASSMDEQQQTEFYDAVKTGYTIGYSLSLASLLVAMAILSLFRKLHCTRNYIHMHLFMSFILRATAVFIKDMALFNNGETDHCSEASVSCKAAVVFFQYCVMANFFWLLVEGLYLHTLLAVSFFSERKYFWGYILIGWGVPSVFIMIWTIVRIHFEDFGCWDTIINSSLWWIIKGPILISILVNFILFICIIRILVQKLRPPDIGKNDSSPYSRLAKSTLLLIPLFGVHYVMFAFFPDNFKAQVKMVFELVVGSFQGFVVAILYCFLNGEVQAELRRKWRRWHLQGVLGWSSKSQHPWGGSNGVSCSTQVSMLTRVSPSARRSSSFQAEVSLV

B1: murine monoclonal anti-VPAC1 antibody 23A11 (antibody, V domains shown)
VH: EVQLQESGPSLVKPSQTLSLTCSVTGDSITSGYWNWIRKFPGNKLEYMGYIRYSGSTYYSPALKSRFSITRDTSKNQYYLQLNSVTTEDTATYYCSNWAYWGQGTLVTVSA
VL: DIVITQDELSNPVTSGESVSISCRSSKSLLYKDGKTYLNWFLQRPGQSPQLLIYLMSTRASGVSDRFSGSGSGTDFTLEISRVKAEDVGVYYCQQLVEYPLTFGAGTKLELK
notes: Murine hybridoma antibody (BALB/c mice); also called murine 23A11; anti-VPAC1 receptor antibody 23A11
B2: humanized 23A11 antibody (isotype not stated in Example 8) (antibody, V domains shown)
VH: EVQLQESGPGLVKPSQTLSLTCTVSGDSITSGYWNWIRKHPGKGLEYMGYIRYSGSTYYSPSLKSRFTISRDTSKNQYSLKLSSVTAADTATYYCSNWAYWGQGTLVTVSA
VL: B1 VL with D7S, E8P, N11L, S15P, S18P, E79K, K84E, A105Q, L111I
notes: The constant regions are human IgG1 or IgG4; also called humanize 23A11 antibody; rhu23A11

What was measured:
[1] = biological target: T1, GST fusion protein of VPAC1 …; assay: western blotting of GST-loop fusion proteins
[2] = biological target: T2, GST-fused VPAC1 variant 4-2 (amino …); assay: western blotting of GST-fused VPAC1 deletion variants
[3] = biological target: T3, GST-fused VPAC1 variant 3-2 (amino …); assay: as above
[4] = biological target: T4, murine VPAC1 receptor on mouse bone …; assay: immunoblot of mouse bone marrow-derived megakaryocytes
[5] = biological target: T5, GST-VPAC1 fusion protein (human VPAC1, full length) (human, UniProt P08515 1-218 = GST); assay: SPR (BIAcore 1000), GST-VPAC1 immobilized; KA = 1/KD; first batch
T5 construct: also called recombinant VPAC1

[6] = biological target: T5, GST-VPAC1 fusion protein (human VPAC1, …); assay: SPR (BIAcore 1000), GST-VPAC1 immobilized; KA = 1/KD; second batch
[7] = biological target: T5, GST-VPAC1 fusion protein (human VPAC1, …); assay: SPR (BIAcore 1000), GST-VPAC1 immobilized on CM5 chip, antibody injected, 1:1 Langmuir fit; first batch
[8] = biological target: T5, GST-VPAC1 fusion protein (human VPAC1, …); assay: SPR (BIAcore 1000), GST-VPAC1 immobilized on CM5 chip, antibody injected, 1:1 Langmuir fit; second batch
[9] = biological target: T5, GST-VPAC1 fusion protein (human VPAC1, …); assay: SPR (BIAcore 1000), GST-VPAC1 immobilized; KA = 1/KD
[10] = biological target: T5, GST-VPAC1 fusion protein (human VPAC1, …); assay: SPR (BIAcore 1000), GST-VPAC1 immobilized on CM5 chip, antibody injected, 1:1 Langmuir fit

Binder | binding result [1] | binding result [2] | binding result [3] | binding result [4] | Ka [5] | Ka [6] | Kd [7] | Kd [8] | Ka [9] | Kd [10]
B1 | binds | binds | binds | binds | 3.54e+07 M⁻¹ | 5.04e+07 M⁻¹ | 28.3 nM | 19.9 nM | – | –
B2 | – | – | – | – | – | – | – | – | 1.02e+08 M⁻¹ | 9.82 nM

— patent publication EP2009026A1 (ThromboGenics N.V., dated 2008)
